Source: patent US20050203007A1 (REGENTS OF THE UNIVERSITY OF MICHIGAN, published 2005)

What was measured:
secreted, soluble Kex2 [1] = molecular target: T1, secreted, soluble Kex2 (Saccharomyces cerevisiae, UniProt P13134 114-613, limits assumed); assay: affinity of purified variants, enzyme inhibition
T1 construct: Secreted, soluble construct; also called kexin
T1 sequence (looked up): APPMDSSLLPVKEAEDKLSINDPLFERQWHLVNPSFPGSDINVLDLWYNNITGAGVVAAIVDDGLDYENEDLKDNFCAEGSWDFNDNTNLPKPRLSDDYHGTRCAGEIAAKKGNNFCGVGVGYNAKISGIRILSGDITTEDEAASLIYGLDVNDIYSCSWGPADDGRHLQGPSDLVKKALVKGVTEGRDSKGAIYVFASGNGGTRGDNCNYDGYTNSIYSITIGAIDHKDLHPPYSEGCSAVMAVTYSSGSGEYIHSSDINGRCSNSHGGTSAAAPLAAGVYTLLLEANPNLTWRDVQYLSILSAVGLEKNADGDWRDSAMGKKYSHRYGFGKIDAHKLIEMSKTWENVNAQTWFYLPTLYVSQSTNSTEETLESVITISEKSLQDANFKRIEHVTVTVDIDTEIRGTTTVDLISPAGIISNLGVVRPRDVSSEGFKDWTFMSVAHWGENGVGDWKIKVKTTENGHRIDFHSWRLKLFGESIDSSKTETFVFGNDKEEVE

secreted, soluble furin [2] = molecular target: T2, secreted, soluble furin (human, UniProt P09958 108-715, limits assumed); assay: rapid furin inhibition assay; table lists substitutions with equal or enhanced inhibition of furin relative to the template
T2 construct: Secreted, soluble construct; also called human furin
T2 sequence (P09958 108-715 limits assumed): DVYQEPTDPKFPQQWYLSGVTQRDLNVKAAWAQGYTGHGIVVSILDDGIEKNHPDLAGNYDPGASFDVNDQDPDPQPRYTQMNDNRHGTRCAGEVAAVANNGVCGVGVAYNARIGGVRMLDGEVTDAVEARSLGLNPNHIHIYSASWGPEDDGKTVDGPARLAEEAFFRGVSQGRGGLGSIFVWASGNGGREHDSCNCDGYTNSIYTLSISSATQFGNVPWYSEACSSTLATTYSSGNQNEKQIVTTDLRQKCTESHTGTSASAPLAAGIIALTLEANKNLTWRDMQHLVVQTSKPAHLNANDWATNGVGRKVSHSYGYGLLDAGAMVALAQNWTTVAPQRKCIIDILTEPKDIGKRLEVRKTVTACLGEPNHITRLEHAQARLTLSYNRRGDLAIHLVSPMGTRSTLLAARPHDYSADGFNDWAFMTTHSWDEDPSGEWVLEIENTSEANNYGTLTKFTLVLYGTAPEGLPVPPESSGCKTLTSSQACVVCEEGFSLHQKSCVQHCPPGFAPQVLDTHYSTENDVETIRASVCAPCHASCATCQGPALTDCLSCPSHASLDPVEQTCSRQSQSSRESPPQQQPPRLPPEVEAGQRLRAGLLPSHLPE
Description: 3. Rapid screening of libraries. Libraries were introduced into E. coli BL21 (DE3) cells and individual, cloned transformants were grown by shaking at 37° C. in 200 μl LB containing […] kanamycin in 96-well, 0.45 μm GHP membrane filter plates (Gelman) (FIG. 2). When O.D. 600 values reached 0.4, 60 μl of culture were transferred to secondary 96-well plates (Falcon), adjusted to 10% glycerol, and stored at −80° C. These frozen stocks served as master copies of the libraries. IPTG was added to the cultures to a final concentration of 1 mM, and the cultures were allowed to express eglin c variants for one hour in the filter plate. Expressed eglin c variants were extracted from the cells with 50 mM Tris-HCl pH 8.0 containing 2 mM EDTA following freezing and thawing. These extracts were collected as filtrates by centrifugation of the filter plate above a second plate. The filtrates, representing partially purified eglin c variants, were analyzed using a rapid fluorescence-based assay for processing enzyme inhibition as described below in Section 5. […] Frozen cells were cultured in 50 to 100 ml culture volumes, and DNA maxipreps were performed; the DNA preparations were then sequenced by automated DNA sequencing. Selected variants were expressed and purified on a larger scale, and affinities for furin or Kex2 were examined quantitatively (see below).
5. Rapid protease inhibition assay. Novel eglin variants were diluted 50-fold and incubated with secreted, soluble furin (0.5 nM) for 15 min in 96-well plates. The furin substrate (Boc-Arg-Val-Arg-Arg-MCA) was added, and release of AMC was monitored continuously in a 96-well fluorescence plate reader for 20 min, as described under Example 1. […] The plasmid DNA encoding such eglin c variant inhibitors were isolated and sequenced.

human PC7 [3] = molecular target: T3, human PC7 (human, UniProt Q16549 142-667, limits assumed); assay: enzyme inhibition, purified variant; Kassoc
T3 sequence (looked up): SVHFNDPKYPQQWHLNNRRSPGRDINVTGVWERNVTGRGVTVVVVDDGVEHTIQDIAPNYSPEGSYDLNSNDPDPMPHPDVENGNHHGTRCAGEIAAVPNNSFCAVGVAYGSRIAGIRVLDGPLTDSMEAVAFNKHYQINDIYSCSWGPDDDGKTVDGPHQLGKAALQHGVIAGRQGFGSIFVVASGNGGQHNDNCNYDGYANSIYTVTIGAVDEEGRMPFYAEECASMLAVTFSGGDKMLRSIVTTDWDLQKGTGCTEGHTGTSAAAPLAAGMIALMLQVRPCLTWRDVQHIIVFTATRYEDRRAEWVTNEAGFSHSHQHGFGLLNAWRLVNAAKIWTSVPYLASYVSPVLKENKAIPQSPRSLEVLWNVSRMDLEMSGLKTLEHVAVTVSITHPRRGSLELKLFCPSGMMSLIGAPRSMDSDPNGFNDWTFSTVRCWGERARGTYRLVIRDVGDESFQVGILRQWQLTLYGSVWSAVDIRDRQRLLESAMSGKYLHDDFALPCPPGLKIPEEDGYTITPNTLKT

secreted, soluble Kex2 [4] = molecular target: T1, secreted, soluble Kex2; assay: enzyme inhibition, purified variant; Kassoc
secreted, soluble furin [5] = molecular target: T2, secreted, soluble furin; assay: enzyme inhibition, purified variant; Kassoc
human PC7 [6] = molecular target: T3, human PC7; assay: enzyme inhibition, purified variant
secreted, soluble Kex2 [7] = molecular target: T1, secreted, soluble Kex2; assay: enzyme inhibition, purified variant
secreted, soluble furin [8] = molecular target: T2, secreted, soluble furin; assay: enzyme inhibition, purified variant
secreted, soluble Kex2 [9] = molecular target: T1, secreted, soluble Kex2; assay: enzyme inhibition, purified variant; remark: listed apart in the source
Description: (§1) Affinities of eglin variants with secreted, soluble Kex2 (hereafter “Kex2”; Brenner, C. and Fuller, R. S. (1992) Proc. Natl. Acad. Sci. USA 89: 922-926) and secreted, soluble furin (hereafter, “furin”; Bravo, D. A. et al (1994) J. Biol. Chem. 269: 25830-25837; and Komiyama & Fuller (2000) Biochemistry 39: 15156-15165) were measured by incubating variants with the enzymes (˜0.5 to 2.0 nM) for 45 min to 1 h at 21° C. in one of two enzyme assay buffers. For Kex2, the buffer was 200 mM Bistris (pH 7.27) containing 1 mM CaCl₂ and 0.1% Triton X-100; and for furin, the buffer was 20 mM NaMES (pH 7.0) containing 1 mM CaCl₂ and 0.1% Triton X-100 for furin. 100 to 200 μL aliquots of reaction mixtures were transferred into triplicate wells of opaque 96 well plates (Costar), and residual enzyme activity was measured with an fmax fluorescence micro plate reader (Molecular Devices) by monitoring hydrolysis of a fluorogenic substrate Boc-Arg-Val-Arg-Arg-MCA. Data were graphically analyzed (KaleidaGraph) with an equation developed by Green and Work (1953). Site-directed mutagenesis at P2 and P6 of eglin c generated temporary inhibitors (Table 3) and exhausted possibility to improve affinity further with this approach.

secreted, soluble furin [10] = molecular target: T2, secreted, soluble furin; assay: enzyme inhibition, purified variant; remark: listed apart in the source
Description: as §1

secreted, soluble Kex2 [11] = molecular target: T1, secreted, soluble Kex2; assay: enzyme inhibition, fluorogenic substrate; * temporary inhibition
Description: as §1

secreted, soluble furin [12] = molecular target: T2, secreted, soluble furin; assay: as above
Description: as §1

secreted, soluble Kex2 [13] = molecular target: T1, secreted, soluble Kex2; assay: equilibrium enzyme inhibition
Description: (§2) Thus, R1-eglin refers to substitution of Arg at position P1.
(§3) Affinities of eglin variants with secreted, soluble Kex2 (hereafter “Kex2”; Brenner, C. and Fuller, R. S. (1992) Proc. Natl. Acad. Sci. USA 89: 922-926) and secreted, soluble furin (hereafter, “furin”; Bravo, D. A. et al (1994) J. Biol. Chem. 269: 25830-25837; and Komiyama & Fuller (2000) Biochemistry 39: 15156-15165) were measured by incubating variants with the enzymes (˜0.5 to 2.0 nM) for 45 min to 1 h at 21° C. in one of two enzyme assay buffers. For Kex2, the buffer was 200 mM Bistris (pH 7.27) containing 1 mM CaCl₂ and 0.1% Triton X-100; and for furin, the buffer was 20 mM NaMES (pH 7.0) containing 1 mM CaCl₂ and 0.1% Triton X-100 for furin.

secreted, soluble furin [14] = molecular target: T2, secreted, soluble furin; assay: equilibrium enzyme inhibition
Description: as §2, §3

secreted, soluble Kex2 [15] = molecular target: T1, secreted, soluble Kex2; assay: equilibrium enzyme inhibition, fluorogenic substrate
Description: as §1

secreted, soluble furin [16] = molecular target: T2, secreted, soluble furin; assay: as above
Description: as §1

secreted, soluble furin [17] = molecular target: T2, secreted, soluble furin; assay: calculated from kon (progress curves) and Ka
Description: In some aspects of the present invention, biological application of the eglin c variants of the present invention as inhibitors of processing in vivo depends upon the rate of binding to target enzymes, where it is critical. Therefore, the rate of action of eglin variants with Kex2 and furin was examined by incubating 5×10⁻¹⁰ M enzyme with inhibitor at molar ratios of inhibitor to enzyme ranging from 10 to 80. […] The relationship between kobs and inhibitor concentration was linear. The values of kₒₙ were determined from the slope of such curves, and dissociation rate constants (koff) were calculated (koff=kₒₙ/Kₐ). For R4R1-eglin, koff was calculated to be 2×10⁻⁴s⁻¹ for Kex2, and 3×10⁻⁴s⁻¹ for furin. […] Similarly, the t_{1/2} of the complex of M4R1-eglin with Kex2 was estimated to be 3 h. For complex of R4K1-eglin with furin, koff was calculated to be 2×10⁻⁴s⁻¹ implying that the koff and t_{1/2} for this complex are similar to those for the complex of R4R1-eglin with furin.

B1: Glu39His-R4R1-eglin (designed binder)
chain: SMGSELKSFPEVVGKTVDQAREYFTLHYPQYDVYFLPHGSRVTRDLRYNRVRVFYNPGTNVVNHVPHVG
B1: binds (secreted, soluble Kex2 [1]); binds (secreted, soluble furin [2]).

B2: Tyr49Asp-R4R1-eglin (designed binder)
chain: SMGSELKSFPEVVGKTVDQAREYFTLHYPQYDVYFLPEGSRVTRDLRDNRVRVFYNPGTNVVNHVPHVG
notes: R4R1 template; N-terminal Met removed; also called Asp49-R4R1-eglin; Asp49-R4R1-
Binder B2 has a Ka (human PC7 [3]) of 5.6e+08 M⁻¹, a Ka (secreted, soluble Kex2 [4]) of 1.8e+10 M⁻¹ and a Ka (secreted, soluble furin [5]) of 3e+09 M⁻¹. For the same binder, the Ki (human PC7 [6]) was 1.8 nM, the Ki (secreted, soluble Kex2 [7]) was 0.056 nM and the Ki (secreted, soluble furin [8]) was 0.3 nM. For the same binder, the Ki (secreted, soluble Kex2 [9]) was 0.045 nM, the “Ki ratio (to R4R1- template)” value (secreted, soluble Kex2 [9]) was 0.05 and the “fold enhanced affinity (relative to R4R1-eglin)” value (secreted, soluble Kex2 [9]) was 16 fold. For the same binder, the Ki (secreted, soluble furin [10]) was 0.33 nM, the “Ki ratio (to R4R1- template)” value (secreted, soluble furin [10]) was 0.132 and the “fold enhanced affinity (relative to R4R1-eglin)” value (secreted, soluble furin [10]) was 10 fold.

B3: M4K2R1-eglin (designed binder)
chain: SMGSELKSFPEVVGKTVDQAREYFTLHYPQYDVYFLPEGSMVKRDLRYNRVRVFYNPGTNVVNHVPHVG
notes: N-terminal Met removed
In the case of B3, the Ki (secreted, soluble Kex2 [11]) is reported as 0.59 nM and the Ki (secreted, soluble furin [12]) is reported as 83 nM.

B4: R4K1-eglin (designed binder)
chain: SMGSELKSFPEVVGKTVDQAREYFTLHYPQYDVYFLPEGSRVTKDLRYNRVRVFYNPGTNVVNHVPHVG
notes: N-terminal Met removed; also called R4K1-template
With B4 the “fold decrease of Ka relative to R4R1-eglin” value (secreted, soluble Kex2 [13]) was 2.8 fold, the “fold higher affinity for Kex2 than for furin” value (secreted, soluble Kex2 [13]) was ~20 fold and the “fold reduction of Ka relative to R4R1-eglin” value (secreted, soluble furin [14]) was 15.4 fold. For the same binder, the Ki (secreted, soluble Kex2 [15]) was 2.5 nM, the Ki (secreted, soluble furin [16]) was 38 nM and the koff (secreted, soluble furin [17]) was 0.0002 s⁻¹. For the same binder, the Ki (secreted, soluble Kex2 [9]) was 2.5 nM, the “Ki ratio (to R4K1- template)” value (secreted, soluble Kex2 [9]) was 1 and the Ki (secreted, soluble furin [10]) was 38 nM. The “Ki ratio (to R4K1- template)” value (secreted, soluble furin [10]) was 1.

B5: R6R4R1-eglin (designed binder)
chain: SMGSELKSFPEVVGKTVDQAREYFTLHYPQYDVYFLPERSRVTRDLRYNRVRVFYNPGTNVVNHVPHVG
notes: N-terminal Met removed; also called Gly40 Arg on R4R1-template
For B5, the Ki (secreted, soluble Kex2 [15]) was 0.29 nM and the Ki (secreted, soluble furin [12]) was 2 nM.

B6: Glu39Tyr-R4R1-eglin (designed binder)
chain: SMGSELKSFPEVVGKTVDQAREYFTLHYPQYDVYFLPYGSRVTRDLRYNRVRVFYNPGTNVVNHVPHVG
B6: binds (secreted, soluble Kex2 [1]); binds (secreted, soluble furin [2]).

B7: Glu39Ser-R4R1-eglin (designed binder)
chain: SMGSELKSFPEVVGKTVDQAREYFTLHYPQYDVYFLPSGSRVTRDLRYNRVRVFYNPGTNVVNHVPHVG
B7: binds (secreted, soluble Kex2 [1]); binds (secreted, soluble furin [2]).

B8: R4K2R1-eglin (designed binder)
chain: SMGSELKSFPEVVGKTVDQAREYFTLHYPQYDVYFLPEGSRVKRDLRYNRVRVFYNPGTNVVNHVPHVG
notes: N-terminal Met removed
For B8, the Ki (secreted, soluble Kex2 [11]) was ~0.5 nM and the Ki (secreted, soluble furin [12]) was ~0.5 nM.

B9: Glu39Pro-R4R1-eglin (designed binder)
chain: SMGSELKSFPEVVGKTVDQAREYFTLHYPQYDVYFLPPGSRVTRDLRYNRVRVFYNPGTNVVNHVPHVG
B9: binds (secreted, soluble Kex2 [1]); binds (secreted, soluble furin [2]).

B10: K2R1-eglin (designed binder)
chain: SMGSELKSFPEVVGKTVDQAREYFTLHYPQYDVYFLPEGSPVKRDLRYNRVRVFYNPGTNVVNHVPHVG
notes: N-terminal Met removed
With B10 the Ki (secreted, soluble Kex2 [11]) was 0.67 nM and the Ki (secreted, soluble furin [12]) was 100 nM.
